Data on 19 variants can be found in the RNAGym collection of RNA variant scans (doi:10.1073/pnas.2313332121).

B1: TPR 5TU (parent)
chain: GGAUCUUCUCGAUCUAACAAAAAAGACAAAUCUGCCACAAAGCUUGAGAGCAUCUUCGGAUGCAGAGGCGGCAGCCUUCGGUGGCGCGAUAGCGCCAACGUUCUCAACUAUGACACGCAAAACGCGUGCUCCGUUGAAUGGAGUUUAUCAUG

This sample holds only a part of the variants without activity.

In the data set the parent is B1. The data set can be described thus: polymerase ribozyme fitness, log enrichment relative to wild type (log ratio); higher = more active; in vitro selection for triplet polymerase activity. A digest of the protocol: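 Fitness compares each genotype's enrichment to that of the wild type on a logarithmic scale, averaging replicates with inverse-variance weights. The logarithm is base 2. Enrichment came from Illumina sequencing of input and output libraries after one triplicate round of in vitro selection, which included frozen incubation at −7 °C, of PCR-built, transcribed mutant libraries of each subunit of a heterodimeric triplet polymerase ribozyme. Only genotypes with ≥10 input reads and ≥1 read per output were kept.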
Regarding GGAUCUUCUCGAUCUAACAAAAAAGACAAAUCUGCCACAAAGCUAGAGAGCAUCUUCGGAUGCAGAGGCGGCAGCCUUCGGUGGCGCCAUAGCGCCAACGUUCUCAACUAUGACACGCAAAACGCGUGCUCCGUUGAAUGGAGUUUAUCAUG [U45A G88C], the “polymerase ribozyme fitness (log ratio)” value is not above -4.2. The same measure for GGAUCUUCUCGAUCUAACAAAAAAGACAAAUCUGCCACAAAGCUAGAGAGCAUCUUCGGAUGCAGAGGCGGCAGCCUUCGGUGGCGCCAUAGCGCCAACGUUCUCAACUAUGCCACGCAAAACGCGUGCUCCGAUGAAUGGAGUUUAUCAUG [U45A G88C A113C U134A]: not above -4.2; for GGAUCUUCUCGAUCUAACAAAAAAGACAAAUCUGCCACAAAGCUAGAGAGCAUCUUCGGAUGCAGAGGCGGCAGCCUUCGGUGGCGCGAUAUCGCCAACGUUCUCAACUAUGACACGCAAAACGCGUGCUCCGUUGAAUGGAGUUUAUCAUG [U45A G92U]: -2.75. To GGAUCUUCUCGAUCUAACAAAAAAGACAAAUCUGCCACAAAGCUAGAGAGCAUCUUCGGAUGCAGAGGCGGCAGCCUUCGGUGGCGCGAUACCGCCAACGUUCUCAACUAUGACACGCAAAACGCGUGCUCCGUUGAAUGGAGUUUAUCAUG [U45A G92C] belongs -3.75. The same measure for GGAUCUUCUCGAUCUAACAAAAAAGACAAAUCUGCCACAAAGCUAGAGAGCAUCUUCGGAUGCAGAGGCGGCAGCCUUCGGUGGCGCGAUAGCGCCAACGUUCUCAACUAUGACACGCAAAACGCUUGCUCCGUUGAAUGGAGUUUAUCAUG [U45A G126U]: -3.51; for GGAUCUUCUCGAUCUAACAAAAAAGACAAAUCUGCCACAAAGCUAGAGAGCAUCUUCGGAUGCAGAGGCGGCAGCCUUCGGUGGCGCGAUAGCGCCAACGUUCUCAACUAUGACACGCAAAACGCAUGCUCCGUUGAAUGGAGUUUAUCAUG [U45A G126A]: -2.15; for GGAUCUUCUCGAUCUAACAAAAAAGACAAAUCUGCCACAAAGCUAGAGAGCAUCUUCGGAUGCAAAGGCGGCAGCCUUCGGUGGCUCGAUAGCGCCAACGUUCUCAACUAUGACACGCAAAACGCGUGCUCCGUUGAAUGGAGUUUAUCAUG [U45A G65A G86U]: not above -4.2. For GGAUCUUCUCGAUCUAACAAAAAAGACAAAUCUGCCACAAAGCUAGAGAGCAUCUUCGGAUGCAGAGGCGGCAGCCUUCGGUGACGCGAUAGCGCCAACGUUCUCAACUAUGACCCGCAAAACGCGUGCUCCGUUGAAUGGAGUUUAUCAUG [U45A G84A A115C], the “polymerase ribozyme fitness (log ratio)” value was -3.88. To GGAUCUUCUCGAUCUAACAAAAAAGACAAAUCUGCCACAAAGCUAGAGAGCAUCUUCGGAUGCAGAGGCGGCAGCCAUCGGUGGCGUGAGACCGCCAACGUUCUCAACUAUGACACGCAAAACGCAUGCUCCGUUGAGUGGAGUUUAUCAUG [U45A U77A C87U U90G G92C G126A A138G] belongs not above -4.2. Turning to GGAUCUUCUCGAUCUAACAAAAAAGACAAAUCUGCCACAAAGCUAGAGAGCAUCUUCGGAUGCAGAGGCGGCAGCCUUCGGUGGCGCGAUAGCGCCAACGUUCUCAACUAUGACACGCAAAACGCGUGCUCCGUUGAAUUGAGUUUAUCAUG [U45A G140U], the “polymerase ribozyme fitness (log ratio)” value was -4.19.

In the case of GGAUCUUCUCGAUCUAACAAAAAAGACAAAUCUGCCACAAAGCUAGAGAGCAUCUUCGGAUGCAGAGGCGGCAGCCUUCGGUGGCGCGAUAGCGCCAACGUUCUCAACUAUGACACUCAAAACGCGUGCUCCGUUGAAUGGAGUUUAUCAUG [U45A G117U], the “polymerase ribozyme fitness (log ratio)” value was -3.08. Consider GGAUCUUCUCGAUCUAACAAAAAAGACAAAUCUGCCACAAAGCUAGAGAGCAUCUGCGGAUGCAGAGGCGGCGGCCUUCGGUGGCGCGAUAGCGCGAAGGUUCUCAUCUAUGACACGCAAAACGCGUGCUCCGUUGAAUAGAGUUUAUCAUG [U45A U56G A73G C96G C99G A107U G140A], for which the “polymerase ribozyme fitness (log ratio)” value was not above -4.2.

For GGAUCUUCUCGAUCUAACAAAAAAGACAAAUCUGCCACAAAGCUAGAGAUCAUCUUCGGAUGCAGAGGCGGCAGCCUUCGGUUGCGUGAUAGCGCCAACGUUUUAAACUAUGACACGCAAAACGCGUGCUCCGUUGAAUGGAGUUUAUCAUG [U45A G50U G83U C87U C103U C105A], the “polymerase ribozyme fitness (log ratio)” value is not above -4.2.

As for GGAUCUUCUCGAUCUAACAAAAAAGACAAAUCUGCCACAAAGCUAGAGAGCAUCGGCGGAUGCAGAGGCGGCAGCCUUCGGUGGCGUGAUACCGCCAACGUUCUCAACUAUGACACGCAAAACGCGUGCUCCGUUGAAUGGAGUUUAUCAUG [U45A U55G U56G C87U G92C], the “polymerase ribozyme fitness (log ratio)” value is -3.98. To GGAUCUUCUCGAUCUAACAAAAAAGACAAAUCUGCCACAAAGCUACAGAGCAUCUACGGAUGCAGAGGCGGCAGCCUUCGGUGUCGCUAGAGCGCCAAAGUUCUCAACUAUGACACGCAAAACGCGUGCUCCGUUGAAUGGAGUUUAUCAUG [U45A G46C U56A G84U G88U U90G C99A] belongs not above -4.2; to GGAUCUUCUCGAUCUAACAAAAAAGACAAAUCUGCCACAAAGCUAGAGAGCAUCUUCGGAUGCAGAGGCGGCAGCCUUCGGUUGGGCGAUAGCGUCAACGUUCUCAACUAUGACACGCAAAACGCGUGCUCCGUUGAAUGGAGUUUAUCAUG [U45A G83U C85G C95U], not above -4.2. To GGAUCUUCUCGAUCUAACAAAAAAGACAAAUCUGCCACAAAGCUAGAGAGCAUCUUCGGAUGCAGAGGCGGCAGCCGUCGGUCGCGCGAUAGCGCCAACGUUCUCAACUAUGACACGCAAAACGCGUGCUCCGUUGAAUGGAGUUAAUCAUG [U45A U77G G83C U146A] belongs not above -4.2; to GGAUCUUCUCGAUCUAACAAAAAAGACAAAUCUGCCACAAAGCUAGAGAGCAUCUUCGGAUGCAGAGGCGGCAGCCUUCGGUGACGCGAUAGCGCCAACGUUCUCAACUAUGACACGCAAAACGCGUGCUCCGUUGAAUGGAGUUUAUCAUG [U45A G84A], -3.44. The same measure for GGAUCUUCUCGAUCUAACAAAAAAGACAAAUCUGCCACAAAGCUAGAGAGCAUCUUCGGAUGCAGAGGCGGCAGCCUUCGGUGGCGCGAUAGCGCCAACGUUCUCAACUAUGACACGCAAAACGCGUGCUCCACUGAAUGGAGUUUAUCAUG [U45A G133A U134C]: not above -4.2.
